In US20260297200:

Target: EGFR-His (human ECD) (human)
Assay: BLI

## Cetuximab Fab-His
  Kd: 1.69 nM
